Experimental data reported in the supplement of paper PMC10065799, “High-throughput profiling of sequence recognition by tyrosine kinases and SH2 domains using bacterial peptide display” (eLife, 2023).

Tests used:
[1] = biological target: Jak2 (UniProt O60674); test: phosphorylation enrichment, bacterial display (enrichment ratio); higher = better substrate or ligand; peptides without Tyr show the background
[2] = biological target: FGFR1 (UniProt P11362); test: as above
[3] = tested on: AncSZ; test: as above
[4] = biological target: Fyn (UniProt P06241); test: as above
[5] = biological target: Hck (UniProt P08631); test: as above
[6] = biological target: EPHB1 (UniProt P54762); test: as above
[7] = tested on: c-Abl (mouse); test: as above
[8] = biological target: FGFR3 (UniProt P22607); test: as above
[9] = biological target: Fes (UniProt P07332); test: as above
[10] = tested on: Fer (mouse); test: as above
[11] = biological target: EPHB2 (UniProt P29323); test: as above
[12] = biological target: MERTK (UniProt Q12866); test: as above
[13] = tested on: c-Src; test: as above
[14] = biological target: c-Src SH2; test: SH2 binding enrichment of the phosphorylated peptide, bacterial display (enrichment ratio); higher = better substrate or ligand; peptides without Tyr show the background
[15] = biological target: Grb2 SH2 (UniProt P62993); test: as above
[16] = biological target: SHP2-C SH2; test: as above
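Throughout, for SH2 binding enrichment of the phosphorylated peptide, bacterial display: peptide library displayed on the E. coli surface as eCPX fusions, selected cells deep-sequenced, score is each peptide's frequency after selection divided by its frequency in the input.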
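Throughout, for phosphorylation enrichment, bacterial display: 11-residue human phosphosite peptides and single-mutation variants displayed on the E. coli surface, counted by deep sequencing, each peptide's frequency after selection divided by its frequency in the unselected input library; frequency after pTyr selection over input frequency; kinase dosed for 20-30% of maximal phosphorylation in three min.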

FGFR3, sequence (P22607 whole entry, looked up): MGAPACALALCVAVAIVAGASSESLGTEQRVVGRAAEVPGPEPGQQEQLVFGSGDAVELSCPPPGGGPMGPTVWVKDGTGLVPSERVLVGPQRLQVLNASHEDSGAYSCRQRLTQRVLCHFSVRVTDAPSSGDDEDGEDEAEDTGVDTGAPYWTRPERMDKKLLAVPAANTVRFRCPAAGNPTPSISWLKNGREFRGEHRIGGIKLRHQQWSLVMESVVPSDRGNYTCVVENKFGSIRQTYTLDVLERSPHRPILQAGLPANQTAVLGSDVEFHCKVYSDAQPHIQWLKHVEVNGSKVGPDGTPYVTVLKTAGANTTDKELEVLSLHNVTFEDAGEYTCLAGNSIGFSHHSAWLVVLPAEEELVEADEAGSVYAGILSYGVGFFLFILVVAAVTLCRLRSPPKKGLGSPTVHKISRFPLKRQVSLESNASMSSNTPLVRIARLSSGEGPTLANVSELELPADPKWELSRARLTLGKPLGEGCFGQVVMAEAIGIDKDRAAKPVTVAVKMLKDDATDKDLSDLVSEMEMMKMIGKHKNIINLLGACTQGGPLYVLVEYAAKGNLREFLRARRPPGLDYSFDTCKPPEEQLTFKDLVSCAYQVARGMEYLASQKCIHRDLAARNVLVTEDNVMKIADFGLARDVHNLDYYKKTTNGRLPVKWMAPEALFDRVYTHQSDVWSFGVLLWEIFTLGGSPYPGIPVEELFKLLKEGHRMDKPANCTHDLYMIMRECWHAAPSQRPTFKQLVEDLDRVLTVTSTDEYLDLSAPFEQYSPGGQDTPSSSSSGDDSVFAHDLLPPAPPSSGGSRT
Fes, sequence (P07332 whole entry, looked up): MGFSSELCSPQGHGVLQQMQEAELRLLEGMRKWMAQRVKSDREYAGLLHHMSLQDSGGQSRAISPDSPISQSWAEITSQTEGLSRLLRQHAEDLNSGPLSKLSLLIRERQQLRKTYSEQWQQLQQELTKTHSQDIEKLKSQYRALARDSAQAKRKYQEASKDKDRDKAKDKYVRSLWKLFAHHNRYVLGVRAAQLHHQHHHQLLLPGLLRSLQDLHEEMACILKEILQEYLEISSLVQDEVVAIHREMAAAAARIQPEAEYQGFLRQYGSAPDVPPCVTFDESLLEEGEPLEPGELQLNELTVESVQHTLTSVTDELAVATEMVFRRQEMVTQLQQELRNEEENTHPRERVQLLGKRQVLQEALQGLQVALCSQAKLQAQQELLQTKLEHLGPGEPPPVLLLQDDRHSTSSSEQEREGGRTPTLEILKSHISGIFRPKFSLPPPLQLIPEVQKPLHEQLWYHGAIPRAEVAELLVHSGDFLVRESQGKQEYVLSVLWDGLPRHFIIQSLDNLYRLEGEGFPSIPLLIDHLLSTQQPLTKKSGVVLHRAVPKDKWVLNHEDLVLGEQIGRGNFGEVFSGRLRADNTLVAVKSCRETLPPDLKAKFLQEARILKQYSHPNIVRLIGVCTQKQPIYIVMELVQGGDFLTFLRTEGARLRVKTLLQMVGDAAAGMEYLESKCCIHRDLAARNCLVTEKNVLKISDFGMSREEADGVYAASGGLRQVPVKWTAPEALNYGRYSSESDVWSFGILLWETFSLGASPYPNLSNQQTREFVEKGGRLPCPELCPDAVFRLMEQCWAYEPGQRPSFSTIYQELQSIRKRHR
Grb2 SH2, sequence (P62993 whole entry, looked up): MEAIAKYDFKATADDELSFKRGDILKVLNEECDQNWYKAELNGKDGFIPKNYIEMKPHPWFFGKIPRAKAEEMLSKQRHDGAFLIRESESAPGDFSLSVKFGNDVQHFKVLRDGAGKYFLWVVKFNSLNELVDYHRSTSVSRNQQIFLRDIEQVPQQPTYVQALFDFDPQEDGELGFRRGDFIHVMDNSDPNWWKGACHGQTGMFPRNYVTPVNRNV
EPHB2, sequence (P29323 whole entry, looked up): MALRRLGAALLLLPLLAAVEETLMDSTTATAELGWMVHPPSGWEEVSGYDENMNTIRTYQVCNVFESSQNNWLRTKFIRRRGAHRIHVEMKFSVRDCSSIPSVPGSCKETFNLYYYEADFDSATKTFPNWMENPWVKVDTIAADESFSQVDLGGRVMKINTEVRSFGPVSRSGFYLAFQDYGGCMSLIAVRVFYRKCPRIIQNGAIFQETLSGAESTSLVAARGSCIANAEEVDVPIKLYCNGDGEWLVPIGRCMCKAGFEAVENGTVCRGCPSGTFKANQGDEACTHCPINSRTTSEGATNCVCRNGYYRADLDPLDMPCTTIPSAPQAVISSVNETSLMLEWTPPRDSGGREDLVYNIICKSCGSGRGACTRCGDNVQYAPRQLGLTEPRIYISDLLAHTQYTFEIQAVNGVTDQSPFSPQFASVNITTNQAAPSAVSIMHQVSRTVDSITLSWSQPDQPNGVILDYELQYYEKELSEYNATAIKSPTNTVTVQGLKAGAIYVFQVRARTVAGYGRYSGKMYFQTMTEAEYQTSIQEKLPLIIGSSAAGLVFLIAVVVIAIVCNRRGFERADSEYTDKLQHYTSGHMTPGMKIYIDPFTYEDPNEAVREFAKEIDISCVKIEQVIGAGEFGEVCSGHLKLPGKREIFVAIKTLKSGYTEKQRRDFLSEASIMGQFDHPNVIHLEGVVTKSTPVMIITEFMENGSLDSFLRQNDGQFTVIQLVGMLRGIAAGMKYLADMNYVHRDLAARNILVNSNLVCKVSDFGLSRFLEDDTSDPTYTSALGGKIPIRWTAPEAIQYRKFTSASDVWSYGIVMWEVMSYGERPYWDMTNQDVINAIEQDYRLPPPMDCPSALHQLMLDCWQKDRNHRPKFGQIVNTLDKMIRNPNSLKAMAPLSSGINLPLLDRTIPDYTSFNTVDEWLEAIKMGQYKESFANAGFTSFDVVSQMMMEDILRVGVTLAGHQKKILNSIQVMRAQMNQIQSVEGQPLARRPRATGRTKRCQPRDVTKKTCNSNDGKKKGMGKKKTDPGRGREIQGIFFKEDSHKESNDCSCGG
EPHB1, sequence (P54762 whole entry, looked up): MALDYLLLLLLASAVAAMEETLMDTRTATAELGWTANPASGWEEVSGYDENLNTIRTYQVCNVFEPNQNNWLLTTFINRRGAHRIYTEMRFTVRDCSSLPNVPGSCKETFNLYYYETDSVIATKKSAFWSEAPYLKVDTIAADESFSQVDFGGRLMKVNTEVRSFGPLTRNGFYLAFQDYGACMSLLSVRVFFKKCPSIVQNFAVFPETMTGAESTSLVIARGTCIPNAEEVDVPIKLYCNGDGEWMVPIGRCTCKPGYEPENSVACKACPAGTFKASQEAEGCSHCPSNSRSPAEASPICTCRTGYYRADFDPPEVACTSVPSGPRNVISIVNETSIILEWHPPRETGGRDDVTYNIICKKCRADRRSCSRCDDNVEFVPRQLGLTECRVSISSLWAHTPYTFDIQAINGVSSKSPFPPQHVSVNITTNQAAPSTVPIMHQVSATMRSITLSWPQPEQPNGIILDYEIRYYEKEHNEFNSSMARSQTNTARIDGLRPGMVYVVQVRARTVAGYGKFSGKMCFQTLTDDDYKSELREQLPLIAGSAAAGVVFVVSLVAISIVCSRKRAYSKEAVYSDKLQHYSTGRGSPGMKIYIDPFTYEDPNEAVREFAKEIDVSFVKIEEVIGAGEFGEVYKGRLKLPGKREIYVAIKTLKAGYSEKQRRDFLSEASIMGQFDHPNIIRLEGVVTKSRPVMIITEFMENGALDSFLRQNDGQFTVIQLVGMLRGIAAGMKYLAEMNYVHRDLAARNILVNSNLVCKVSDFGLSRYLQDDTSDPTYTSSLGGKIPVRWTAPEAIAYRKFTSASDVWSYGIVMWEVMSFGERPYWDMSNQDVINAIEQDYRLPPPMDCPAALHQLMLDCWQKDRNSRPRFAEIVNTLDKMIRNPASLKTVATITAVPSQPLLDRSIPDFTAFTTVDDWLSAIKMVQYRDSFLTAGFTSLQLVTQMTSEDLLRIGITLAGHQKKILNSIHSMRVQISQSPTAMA
MERTK, sequence (Q12866 whole entry, looked up): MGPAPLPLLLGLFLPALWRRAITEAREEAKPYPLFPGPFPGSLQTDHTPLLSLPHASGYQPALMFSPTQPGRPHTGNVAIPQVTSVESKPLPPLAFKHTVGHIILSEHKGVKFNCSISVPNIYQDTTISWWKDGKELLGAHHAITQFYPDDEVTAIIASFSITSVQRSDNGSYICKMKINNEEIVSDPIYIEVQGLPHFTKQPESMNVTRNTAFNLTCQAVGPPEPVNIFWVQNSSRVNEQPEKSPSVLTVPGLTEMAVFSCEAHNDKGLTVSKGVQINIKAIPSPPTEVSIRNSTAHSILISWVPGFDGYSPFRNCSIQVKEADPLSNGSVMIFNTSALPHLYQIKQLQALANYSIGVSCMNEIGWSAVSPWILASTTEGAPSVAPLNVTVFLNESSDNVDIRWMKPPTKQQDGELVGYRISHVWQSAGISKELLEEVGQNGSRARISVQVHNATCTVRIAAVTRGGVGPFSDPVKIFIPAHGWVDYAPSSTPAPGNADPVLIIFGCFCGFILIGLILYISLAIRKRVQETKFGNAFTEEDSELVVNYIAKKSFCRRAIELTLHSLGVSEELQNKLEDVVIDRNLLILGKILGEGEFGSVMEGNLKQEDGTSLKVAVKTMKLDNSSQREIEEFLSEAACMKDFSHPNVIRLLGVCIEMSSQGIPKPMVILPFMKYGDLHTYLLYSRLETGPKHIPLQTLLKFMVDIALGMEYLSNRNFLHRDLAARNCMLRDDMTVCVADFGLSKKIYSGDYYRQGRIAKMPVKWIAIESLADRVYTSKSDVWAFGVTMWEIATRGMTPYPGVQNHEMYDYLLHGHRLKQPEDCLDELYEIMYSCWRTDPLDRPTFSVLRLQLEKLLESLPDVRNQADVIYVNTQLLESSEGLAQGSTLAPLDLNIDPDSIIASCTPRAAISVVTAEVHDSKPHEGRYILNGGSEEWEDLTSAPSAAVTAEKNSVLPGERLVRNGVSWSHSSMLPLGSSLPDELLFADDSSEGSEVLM

Row | Sequence | phosphorylation enrichment [1] | phosphorylation enrichment [2] | phosphorylation enrichment [3] | phosphorylation enrichment [4] | phosphorylation enrichment [5] | phosphorylation enrichment [6] | phosphorylation enrichment [7] | phosphorylation enrichment [8] | phosphorylation enrichment [9] | phosphorylation enrichment [10] | phosphorylation enrichment [11] | phosphorylation enrichment [12] | phosphorylation enrichment [13] | SH2 binding enrichment [14] | SH2 binding enrichment [15] | SH2 binding enrichment [16]
1 | GFGGGYGGVLT [KRT19_Y65_A60G_YF] | 0.575 | 0.491 | 0.626 | 0.47 | 0.488 | 0.452 | 0.493 | 0.522 | 0.696 | 0.492 | 0.444 | 0.381 | 0.45 | 0.478 | 1.06 | 0.999
2 | GMAHNYRNRSQ [AASS_Y188_S191R] | 0.488 | 0.344 | 0.599 | 0.487 | 0.523 | 0.414 | 0.57 | 0.401 | 0.629 | 0.358 | 0.388 | 0.466 | 0.481 | 0.48 | 0.703 | 0.392
3 | TISPFYRQSLF [CRYAA_Y48_YF] | 0.693 | 0.448 | 0.648 | 0.437 | 0.396 | 0.435 | 0.49 | 0.489 | 0.76 | 0.369 | 0.528 | 0.467 | 0.395 | 0.612 | 0.85 | 0.706
4 | LNECHYGALIG [BPGM_Y92_R90C] | 0.885 | 0.701 | 0.996 | 4.07 | 2.93 | 0.682 | 1.4 | 0.886 | 1.38 | 1.35 | 0.878 | 0.741 | 3.61 | 0.334 | 0.681 | 0.446
5 | RRGTRYMSSRP [RPL21_Y13_F15S] | 0.699 | 0.551 | 0.439 | 0.772 | 0.621 | 0.481 | 0.527 | 0.633 | 0.473 | 0.578 | 0.499 | 0.57 | 0.947 | 0.489 | 0.964 | 0.533
6 | VKANTYEKFWL [GATM_Y100_P105L_YF] | 0.821 | 0.382 | 0.887 | 0.803 | 0.684 | 0.562 | 0.672 | 0.722 | 1.07 | 2.9 | 0.545 | 1.19 | 1.11 | 0.794 | 0.819 | 0.807
7 | KWELRYMHSRV [ABCD1_Y281_G277W] | 1.07 | 0.393 | 1.09 | 0.458 | 0.474 | 0.517 | 0.759 | 0.685 | 1.31 | 0.457 | 0.528 | 0.369 | 0.37 | 0.716 | 1.06 | 0.878
8 | ITSLLYHVVGW [GBA_Y412_N409S] | 2.57 | 5.64 | 1.32 | 3.16 | 4.74 | 5.12 | 2 | 5 | 1.31 | 2.94 | 2.99 | 7.37 | 3.6 | 0.959 | 1.14 | 1.22
9 | VQVAFYTMMMN [SPATA17_Y84_YF] | 1.6 | 1.84 | 1.63 | 0.652 | 0.769 | 1.3 | 1.03 | 1.99 | 1.51 | 1.81 | 1.15 | 3.02 | 0.956 | 0.721 | 0.816 | 0.814
10 | FQEKSYIKGTS [LCTL_Y331_L326F] | 0.87 | 0.423 | 0.625 | 0.364 | 0.398 | 0.33 | 0.612 | 0.426 | 0.657 | 0.355 | 0.531 | 0.321 | 0.457 | 0.416 | 0.918 | 0.553
11 | SSVAGYACLAF [MVD_Y131_A128V_YF] | 0.961 | 0.516 | 0.903 | 0.478 | 0.556 | 0.562 | 0.949 | 0.792 | 1.21 | 0.511 | 0.537 | 0.631 | 0.519 | 1.76 | 0.834 | 10.7
12 | DRFANYIEKVR [DES_Y122] | 1.02 | 0.419 | 0.628 | 0.434 | 0.42 | 0.523 | 0.728 | 0.508 | 0.759 | 0.41 | 0.424 | 0.367 | 0.425 | 0.473 | 0.769 | 0.743
13 | FPDFVYKCIKA [DPYSL2_Y479_R481C] | 1.44 | 0.616 | 1.35 | 0.51 | 0.563 | 0.691 | 0.95 | 0.788 | 1.39 | 0.533 | 0.613 | 0.446 | 0.595 | 0.538 | 0.818 | 0.727
14 | PVFQVYPLLNC [GATA1_Y78] | 1.72 | 1.27 | 1.7 | 0.652 | 0.654 | 0.775 | 1.13 | 1.43 | 1.87 | 0.758 | 0.64 | 0.927 | 0.697 | 0.49 | 0.742 | 0.783
